# Biological target: endogenous AP-1 (activator protein 1) in 293 cells, activated by MEKK1
# Assay: cell-based or functional assay
# Details: scale: normalized promoter activity
substance,measurement,value
Tcl1 R52H (pCMV5-TCL1 R52H construct) (from UniProt P56279 1-114),"AP-1 dependent transactivation (pAP-1-Luc reporter, MEKK1-activated, 293 cells), normalized promoter activity",176
